Laboratory results from patent publication US8076297B2, “Pharmaceutical composition containing polypeptide fragments of serralysins” (Centro De Ingenieria Genetica Y Biotecnologia, priority 2004, dated 2011).
Entries after “also recorded” stand apart in the source; their conditions may differ. Read-outs that look alike come from different tables or passages of the source.

What was measured:
[1] = test system: P3X63Ag8 mieloide tumor; test: Regression of implanted P3X63Ag8 myeloid tumor; format: in vivo, BALB/c mice
Description: The p25 was them injected i.p. to mice BALB/c after of 8 days of implanted P3X63Ag8 mieloide tumor and perfectly development. The doses of 22 μg/kg of weigh of p25 induced total regression in the 80% of the animals treatment. the negative controls death in the end of 30 days, where already had development compact tumors.

[2] = test system: casein; test: Proteolytic activity, modified Anson and Mirsky method; format: biochemical
From the text: The modify method of Anson y Mirsky (Anson, M. L., Mirsky, A. E. 1932. J. Gen. Physiol. 16: 59) using casein as sustrate, was adjust in our laboratory with Tripsina (y=1.9314x-0.682; R^2=0.999). The proteic fraccions obtained in the chromatography describe in the Example 6 were assay with this method.

[3] = test system: human microvasculature endothelial cells (HMEC); test: Formation of tubular structures in matrigel; format: cell-based; settings: non-cytotoxic concentrations; activation with 10 ng/mL EGF, 1 μg/mL hydrocortisone
From the text: Anti-angiogenic effect of MG2327 and anti-proliferative polypeptides fragments were evaluate by the method of formation of tubular structure in matrigel. Non citotoxic concentration of MG2327 and their fraction p25 y p50 were incubed with human microvasculature endothelial celulas (HMEC). The final result it evalued considering the tubular structure length formed and the number of interconexión between them. For this used Pro Express 4.5 Image-program.
Human micro-vasculature-derived human endotelial cells (HMEC) were assessed for endothelial cord formation on matrigel (Crum R, Szabo S, Folkman J. 1985. Science. 230:1375-8; Vacca, A., Ribatti, D., Presta, M., Minischettti, M., lurlaro, M, Ria, R, Albini, A, Bussolino, F. and Dammaacco, F. 1999. Blood 93:3064) after culture under non-cytotoxic MG2327 and p25 and p50 concentrations (Sanz, L., Pascual, M., Muñoz, A., González, M. A., Salvador C H, Álvarez-Vallina L. 2002. Microvascular Research 63:335-339). Results considered the length of tubular structures and the number of interconnections between them, as calculated by using the Image-Pro Express 4.5 package.

[4] = test system: murine mieloma P3X63Ag8 cells; test: Apoptosis: DNA laddering and electron microscopy; format: cell-based
Description: For determining the kind of tumoral cell death, murine mieloma P3X63Ag8 cells (2*10^7) were treated in vitro with MG2327 at 22 μg/mL. Treated and untreated cells were prepared for ultrastructural transmission electron microscopy studies at different times, and genomic DNA was extracted for DNA laddering assay.
DNA fragmentation was assessed by 2% agarose gel electrophoresis. Apoptosis frequently involves cellular DNA laddering of 180-200 bp, representative of inter-nucleosomal distances (Soldatenkov, V. A., Prasad, S., Voloshin, Y., and Dritschilo, A. 1998. Cell Death Differ. 5:307-12).

[5] = test system: gelatine; test: Proteolytic activity, zymogram method; format: biochemical
From the text: The method of the cimogeno using gelatine as sustrate (Vacca, A., Iurlaro, M., Ribatti, D., Minischetti, M., Nico, B., Ria, R., Pellegrino, A. and Dammacco, F. 1999. Blood. 94:4143-4155) was employed to verify the proteolytic activity of p50 and p25. Moreover was analized the enzymatic capacity of the degradation of p50.

[6] = test system: HEp-2 cells; test: Anti-proliferative assay on HEp-2 cells, MTT method; format: cell-based, human
Description: For the characterization of the antiproliferative activity of MG2327 “in vitro” a panel of human cell lines was evaluated (table 1). A total of 2000 cells, except for PBMC (20000), were seeded in 96 wells culture wells, and different concentrations of MG2327 were added. After 72 hours, the number of survival cells was estimated by addition of MTT (Skehan, P., Storeng, R., Scudiero, D., Monks, A., Mcmahon, J., Vistica, D., Warren, J. T., Bokesch, H., Kenney, S. and BOYD, M. R. 1990. J Natl Cancer Inst. 82:1107). The soluble formazan products were detected at 540 nm in a multiscan plate reader.

B1: p25: 25 kDa non-proteolytic C-terminal fragment of serralysin PRZN_SERMA/PRZN_SERSP, degradation product of p50 (protein)
chain: SYWSETNTGGDNGGHYAAAPLLDDIAAIQHLYGANPSTRTGDTVYGFNSNTGRDFLSTTSNSQKVIFAAWDAGGNDTFDFSGYTANQRINLNEKSFSDVGGLKGNVSIAAGVTIENAIGGSGNDVIVGNAANNVLKGGAGNDVLFGGGGADELWGGAGKDIFVFSAASDSAPGASDWIRDFQKGIDKIDLSFFNKEANSSDFIHFVDHFSGTAGEALLSYNASSNVTDLSVNIGGHQAPDFLVKIVGQVDVATDFIV
animals with total regression ([1]; 22 μg/kg i.p., 8 days after tumor implant): 80%
tumor regression ([1]; mouse, in vivo): induce total regression
proteolytic (enzymatic) activity [2]: no showed enzymatic activity; also recorded: non present enzymatic activity; also recorded: do not present activity
differentiation of endothelial cells / tubular net formation [3]: significant inhibition; also recorded: index of net formation inferior to that observed for MG2327 and p50
ultrastructural changes (electron microscopy) [4]: chromatin condensing, damaged mitrocondria cristae and clustered mitocondria were detected
proteolytic activity [5]: no showed this activity
inhibition of the growing of the tumor cells ([6]; 18 μg/mL): 100%
activity of 25 kDa fraction compared with 50 kDa fraction ([6]; 9 and 18 μg/mL): most active
activity of 25 kDa component compared with MG2327 ([6]; doses of 2.5, 4.5 and 9 μg/mL): showed major biologic activity
IC50 ([6]; fractions recovered from SDS gels and renaturalized, p50 with Zn4SO2 5 μM added, read-out: IC50 (FIG. 2)): 0.35 nM
IC50 ([6]; fractions recovered from SDS gels, p50 incubated with 5 μM Zn2SO4, read-out: IC50 of the fractions p25 and p50): 0.48 nM
antiproliferative activity ([6]; gel-recovered fractions, no zinc added (incubated with EDTA)): dosis-dependiente potent anti-proliferative activity; also recorded: strong antiproliferative dose dependent activity
anti-proliferative effect ([6]; proteins purified by DEAE chromatography): showed anti-proliferative effect on HEp.2
